Laboratory results: patent US20220064250A1 (AKSTON BIOSCIENCES, published 2022)
Substitutions are numbered along the chain they refer to.

Key:
[1] = target: T1, human insulin receptor on human IM-9 cells (human, UniProt P06213 28-1382); test: IM-9 cells, competition with biotinylated RHI, flow cytometry, 4 C
T1 construct: whole, on cells; Endogenous receptor on IM-9 cells; assay run at 4 C; also called IR
Procedure: (§1) Cultures of IM-9 cells were centrifuged at 250×g (˜1000 rpm) for 10 min to pellet the cells. Cells were washed once with HBSS or PBS buffer, resuspended in cold FACS staining medium (HBSS/2 mM EDTA/0.1% Na-azide+4% horse serum) to a concentration of 8×10^6 cells/mL and kept on ice or 4° C. until test solutions were made. The insulin-Fc protein was diluted in FACS buffer in 1:3 serial dilutions as 2× concentrations in 1.2 mL tubes (approx. 60 μL volume of each dilution), and the solutions were kept cold on ice until ready for pipetting.
(§2) Biotinylated-RHI was diluted in FACS staining medium to a concentration of 1.25 μg/mL. 40 μL of the serially diluted test compound and 8 μL of 1.25 μg/mL Biotin-RHI were added into each well of a V bottom microtiter plate, mixed by slow vortexing, and placed on ice. […]
(§3) The V-bottom plates containing cells were then analyzed on a Guava 8-HT flow cytometer (Millipore). Biotinylated-RHI binding to insulin receptor was quantitated by the median fluorescence intensity (MFI) of the cells on the FACS FL-2 channel for each concentration of the test compound. […] The % inhibition by test compounds of biotinylated-RHI binding on IM-9 cells was plotted against log concentrations of the test compound, and the resulting IC50 values were calculated using GraphPad Prism (GraphPad Software, La Jolla, Calif.) for the test compounds.

[2] = target: T1, human insulin receptor on human IM-9 …; test: IM-9 cells, competition with biotinylated RHI, flow cytometry, 4 C (Table 5, same data as Table 9)
Procedure: as §1, §2, §3

[3] = target: T1, human insulin receptor on human IM-9 …; test: IM-9 cells, competition with biotinylated RHI, flow cytometry, 4 C (Table 3, same data as Table 7)
Procedure: (§4) 40 μL of an IM-9 cell suspension (8×10^6 cells/mL) was then added to each well by multichannel pipette, mixed again gently and incubated on ice for 30 min to allow competitive binding on the insulin receptor on IM-9 cells. Cells were then washed twice with 275 μL of ice-cold FACS wash buffer (HBSS/2 mM EDTA/0.1% Na-azide+0.5% horse serum) by centrifuging the V-bottom plate at 3000 rpm for 3 min and aspirating the supernatant. Cells were then resuspended in 40 μL of FACS staining medium containing 1:100 diluted Streptavidin-PE (Life Technologies) for 20 min on ice. Cells were then washed once with 275 μL of ice-cold FACS buffer and finally fixed with 3% paraformaldehyde for 10 min at room temp. Cells were then washed once with 275 μL of ice-cold FACS buffer and resuspended in 250 μl of FACS buffer for analysis.
The V-bottom plates containing cells were then analyzed on a Guava 8-HT flow cytometer (Millipore). Biotinylated-RHI binding to insulin receptor was quantitated by the median fluorescence intensity (MFI) of the cells on the FACS FL-2 channel for each concentration of the test compound. Control wells were labeled only with biotinylated-RHI and were used to calculate the percent (%) inhibition resulting from each test compound concentration. The % inhibition by test compounds of biotinylated-RHI binding on IM-9 cells was plotted against log concentrations of the test compound, and the resulting IC50 values were calculated using GraphPad Prism (GraphPad Software, La Jolla, Calif.) for the test compounds. Lower IC50 values of the test compound therefore indicate greater levels of biotinylated-RHI inhibition at lower concentrations indicating stronger binding of the insulin-Fc fusion protein to the insulin receptor. A control compound, such as unlabeled recombinant human insulin (RHI) was also used as an internal standard to generate an RHI IC50 against which a given compound IC50 could be ratioed (IC50(compound)/IC50(RHI)). […]

[4] = target: T1, human insulin receptor on human IM-9 …; test: IM-9 cells, competition with biotinylated RHI, flow cytometry, 4 C; remark: listed apart in the source
Procedure: as §4
as §3, with “compounds. […]” for “compounds.”

T1 sequence (P06213 28-1382): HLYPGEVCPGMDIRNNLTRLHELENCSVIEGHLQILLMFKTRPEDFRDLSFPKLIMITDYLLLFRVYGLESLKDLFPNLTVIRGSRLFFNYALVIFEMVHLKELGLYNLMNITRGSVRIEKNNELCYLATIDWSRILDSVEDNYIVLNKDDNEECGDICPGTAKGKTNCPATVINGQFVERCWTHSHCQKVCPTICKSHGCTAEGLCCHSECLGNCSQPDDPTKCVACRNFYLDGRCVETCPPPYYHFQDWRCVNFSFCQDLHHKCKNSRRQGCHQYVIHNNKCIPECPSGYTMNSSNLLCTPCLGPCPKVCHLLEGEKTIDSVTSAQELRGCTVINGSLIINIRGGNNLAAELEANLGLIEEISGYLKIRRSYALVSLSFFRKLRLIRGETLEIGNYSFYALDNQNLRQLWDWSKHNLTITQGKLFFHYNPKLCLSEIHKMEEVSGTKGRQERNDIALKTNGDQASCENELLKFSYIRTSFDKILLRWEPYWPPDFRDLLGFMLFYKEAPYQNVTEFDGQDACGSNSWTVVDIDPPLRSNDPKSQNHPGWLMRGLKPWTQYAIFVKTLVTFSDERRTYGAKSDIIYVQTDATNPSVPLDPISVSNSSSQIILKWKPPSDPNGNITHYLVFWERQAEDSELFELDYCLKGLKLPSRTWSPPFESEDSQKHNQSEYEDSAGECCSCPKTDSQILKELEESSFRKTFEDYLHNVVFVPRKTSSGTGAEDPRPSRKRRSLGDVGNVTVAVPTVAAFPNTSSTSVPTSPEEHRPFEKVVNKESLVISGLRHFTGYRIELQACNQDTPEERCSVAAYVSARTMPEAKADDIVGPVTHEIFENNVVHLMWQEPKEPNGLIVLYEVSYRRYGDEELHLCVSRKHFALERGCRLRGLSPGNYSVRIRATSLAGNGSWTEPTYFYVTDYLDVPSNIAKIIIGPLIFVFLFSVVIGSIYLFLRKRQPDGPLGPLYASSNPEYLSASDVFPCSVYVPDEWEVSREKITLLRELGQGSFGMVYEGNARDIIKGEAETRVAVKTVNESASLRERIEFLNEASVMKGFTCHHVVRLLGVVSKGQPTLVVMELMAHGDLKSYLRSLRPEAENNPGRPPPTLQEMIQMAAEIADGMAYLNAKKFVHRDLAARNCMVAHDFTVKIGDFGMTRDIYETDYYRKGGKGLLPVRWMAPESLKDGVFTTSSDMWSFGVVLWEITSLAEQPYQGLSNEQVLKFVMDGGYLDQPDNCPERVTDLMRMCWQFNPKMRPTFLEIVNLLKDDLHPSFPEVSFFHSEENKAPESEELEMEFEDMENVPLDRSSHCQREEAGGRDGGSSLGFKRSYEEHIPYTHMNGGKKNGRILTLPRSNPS

B1: insulin-Fc fusion protein of SEQ ID NO: 51 (insulin polypeptide SEQ ID NO: 16, linker SEQ ID NO: 25, canine IgGB Fc fragment with des hinge D and cNg-K, i.e. … (Fc fusion)
chain: FVNQHLCGSDLVEALALVCGERGFFYTDPTGGGPRRGIVEQCCHSICSLYQLENYCNGGGGAGGGGCPKCPAPEMLGGPSVFIFPPKPKDTLLIARTPEVTCVVVDLDPEDPEVQISWFVDGKQMQTAKTQPREEQFKGTYRVVSVLPIGHQDWLKGKQFTCKVNNKALPSPIERTISKARGQAHQPSVYVLPPSREELSKNTVSLTCLIKDFFPPDIDVEWQSNGQQEPESKYRTTPPQLDEDGSYFLYSKLSVDKSRWQRGDTFICAVMHEALHNHYTQESLSHSPG
notes: Non-glycosylated homodimer made in HEK293 cells; also called cNg-NB138-K
IC50 [1]: 147 nM
IC50 [2]: 147 nM

B2: insulin-Fc fusion protein of SEQ ID NO: 45 (insulin polypeptide SEQ ID NO: 16, linker SEQ ID NO: 25, canine IgGD Fc fragment SEQ ID NO: 31) (Fc fusion)
chain: FVNQHLCGSDLVEALALVCGERGFFYTDPTGGGPRRGIVEQCCHSICSLYQLENYCNGGGGAGGGGCISPCPVPESLGGPSVFIFPPKPKDILRITRTPEITCVVLDLGREDPEVQISWFVDGKEVHTAKTQPREQQFNSTYRVVSVLPIEHQDWLTGKEFKCRVNHIGLPSPIERTISKARGQAHQPSVYVLPPSPKELSSSDTVTLTCLIKDFFPPEIDVEWQSNGQPEPESKYHTTAPQLDEDGSYFLYSKLSVDKSRWQQGDTFTCAVMHEALQNHYTDLSLSHSPG
notes: Homodimer made in HEK293 cells; the preparation was highly aggregated (12% homodimer)
IC50 [3]: > 5000 nM

B3: insulin-Fc fusion protein of SEQ ID NO: 33 (insulin polypeptide SEQ ID NO: 16, linker SEQ ID NO: 25, canine IgGA Fc fragment SEQ ID NO: 28) (Fc fusion)
chain: FVNQHLCGSDLVEALALVCGERGFFYTDPTGGGPRRGIVEQCCHSICSLYQLENYCNGGGGAGGGGRCTDTPPCPVPEPLGGPSVLIFPPKPKDILRITRTPEVTCVVLDLGREDPEVQISWFVDGKEVHTAKTQSREQQFNGTYRVVSVLPIEHQDWLTGKEFKCRVNHIDLPSPIERTISKARGRAHKPSVYVLPPSPKELSSSDTVSITCLIKDFYPPDIDVEWQSNGQQEPERKHRMTPPQLDEDGSYFLYSKLSVDKSRWQQGDPFTCAVMHETLQNHYTDLSLSHSPG
notes: Disulfide-linked homodimer made in HEK293 cells; the preparation was only 24% homodimer (highly aggregated)
IC50 [4]: 2730 nM
IC50 [3]: 2730 nM

B4: insulin-Fc fusion protein of SEQ ID NO: 41 (insulin polypeptide SEQ ID NO: 16, linker SEQ ID NO: 25, canine IgGB Fc fragment SEQ ID NO: 29) (Fc fusion)
chain: FVNQHLCGSDLVEALALVCGERGFFYTDPTGGGPRRGIVEQCCHSICSLYQLENYCNGGGGAGGGGDCPKCPAPEMLGGPSVFIFPPKPKDTLLIARTPEVTCVVVDLDPEDPEVQISWFVDGKQMQTAKTQPREEQFNGTYRVVSVLPIGHQDWLKGKQFTCKVNNKALPSPIERTISKARGQAHQPSVYVLPPSREELSKNTVSLTCLIKDFFPPDIDVEWQSNGQQEPESKYRTTPPQLDEDGSYFLYSKLSVDKSRWQRGDTFICAVMHEALHNHYTQESLSHSPG
notes: Disulfide-linked homodimer made in HEK293 cells; 93% homodimer; native cNg glycosylation site kept
IC50 [4]: 28 nM
IC50 [3]: 28 nM

B5: insulin-Fc fusion protein of SEQ ID NO: 47 (insulin polypeptide SEQ ID NO: 16, linker SEQ ID NO: 25, canine IgGB Fc fragment with cNg-S) (Fc fusion)
chain: B4 chain with N139S
notes: Non-glycosylated homodimer made in HEK293 cells; also called cNg-NB139-S
IC50 [1]: 145 nM
IC50 [2]: 145 nM
